The target in assay [1] is sAPPα (UniProt P05067). Nature of the assay: dot blot, antigen dilution series on nitrocellulose (first dot 1 pmol), antibody 0.2 µg/ml, densitometry.
For assay [2], the target named is Aβ(1-42) globulomer (human). The assay can be described thus: dot blot, antigen dilution series on nitrocellulose, antibody 0.2 µg/ml, densitometry.
The target in assay [3] is Aβ(1-42) fibril (human). Described as above.

A value given as a limit tells only on which side of the number the result lay.

Chain of Aβ(1-42) fibril (human) (peptide, as listed by the source): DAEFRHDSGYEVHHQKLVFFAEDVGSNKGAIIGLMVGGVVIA
Chain of Aβ(1-42) globulomer (human) (peptide, as listed by the source): as above

B1: humanized monoclonal anti-Aβ antibody 4D10hum#1 (antibody, human IgG1, kappa, V domains shown)
VH: EVQLVESGGGLVQPGGSLRLSCAVSGFTLSSYGVHWVRQAPGKGLEWLGVIWRGGRIDYNAAFMSRLTISKDNSKSTVYLQMNSLRAEDTAVYYCARNSDVWGQGTTVTVSS
VL: DVVMTQTPLSLPVTPGQPASISCKSSQSLLDIDGKTYLNWLLQKPGQSPQRLIYLVSKLDSGVPDRFSGSGSGTDFTLKISRVEAEDVGVYYCWQGTHFPYTFGQGTKLEIKR
B1: the results for the dot blot quantification (relation between recognition of Aβ(20-42) globulomer and the respective Aβ form) in assay [1], in assay [2] and in assay [3] were > 100, > 10000 and > 10000, respectively.

The values above are taken from patent publication US20150218261A1.
